Data reported in patent publication US20150158912A1.

Assays:
[1] = molecular target: crystallized mutant mouse IL-17RB-SEFIR (RB-SEFIR-M; K364A, K367A, K368A and K369A quadruple mutant, residues 325-486) (mouse) (UniProt Q9JIP3); assay: SPR; printed as Ka
[2] = molecular target: wild type mouse IL-17RB-SEFIR (WT-RB-SEFIR) (mouse) (UniProt Q9JIP3); assay: SPR; printed as Ka
Chain of wild type mouse IL-17RB-SEFIR (WT-RB-SEFIR) (mouse) (Q9JIP3 314-486): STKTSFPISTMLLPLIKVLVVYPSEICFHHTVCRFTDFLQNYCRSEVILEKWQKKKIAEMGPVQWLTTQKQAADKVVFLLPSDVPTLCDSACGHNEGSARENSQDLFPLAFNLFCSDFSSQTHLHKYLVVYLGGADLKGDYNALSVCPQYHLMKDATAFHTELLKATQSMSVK

Chain of recombinant mouse Act1 SEFIR domain (mAct1-SEFIR, residues 391 to 537) (Q8N7N6 391-537): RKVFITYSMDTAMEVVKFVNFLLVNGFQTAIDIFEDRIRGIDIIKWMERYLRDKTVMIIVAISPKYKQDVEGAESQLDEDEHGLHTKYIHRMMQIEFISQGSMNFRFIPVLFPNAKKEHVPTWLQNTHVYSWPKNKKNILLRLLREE
Chain of crystallized mutant mouse IL-17RB-SEFIR (RB-SEFIR-M; K364A, K367A, K368A and K369A quadruple mutant, residues 325-486) (mouse) (Q9JIP3 325-486 K364A/K367A/K368A/K369A): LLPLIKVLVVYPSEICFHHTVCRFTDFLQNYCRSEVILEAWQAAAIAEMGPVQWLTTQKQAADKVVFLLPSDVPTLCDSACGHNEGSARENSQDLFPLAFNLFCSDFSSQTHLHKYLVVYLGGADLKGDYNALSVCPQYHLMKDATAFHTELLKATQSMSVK

## recombinant mouse Act1 SEFIR domain (mAct1-SEFIR, residues 391 to 537) (from UniProt Q8N7N6 391-537)
[1]
  Kd: 1500 nM
[2]
  Kd: 1400 nM
